Reference: patent US20050114927A1 (RUTGERS THE STATE UNIVERSITY, published 2005)

Target: T1, Yeast wild-type ribosomal protein L3 (rpl3), in vitro synthesized, free form (Saccharomyces cerevisiae (yeast), UniProt P14126 1-387)
T1 construct: also called wild-type L3; radiolabeled L3
Test: co-immunoprecipitation, isolated proteins in vitro

T1 sequence (P14126 whole entry): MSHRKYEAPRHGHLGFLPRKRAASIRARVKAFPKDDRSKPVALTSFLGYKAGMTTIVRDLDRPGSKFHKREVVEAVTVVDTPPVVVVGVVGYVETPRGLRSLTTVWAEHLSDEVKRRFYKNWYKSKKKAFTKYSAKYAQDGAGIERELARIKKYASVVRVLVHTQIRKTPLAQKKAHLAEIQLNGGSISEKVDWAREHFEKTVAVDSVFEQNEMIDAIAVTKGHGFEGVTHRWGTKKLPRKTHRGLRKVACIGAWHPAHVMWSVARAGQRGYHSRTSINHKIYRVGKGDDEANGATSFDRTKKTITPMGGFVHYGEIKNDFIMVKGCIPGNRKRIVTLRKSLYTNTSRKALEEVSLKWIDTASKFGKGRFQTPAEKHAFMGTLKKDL

B1: Pokeweed antiviral protein (PAP) (enzyme)
chain: VNTIIYNVGSTTISKYATFLNDLRNEAKDPSLKCYGIPMLPNTNTNPKYVLVELQGSNKKTITLMLRRNNLYVMGYSDPFETNKCRYHIFNDISGTERQDVETTLCPNANSRVSKNINFDSRYPTLESKAGVKSRSQVQLGIQILDSNIGKISGVMSFTEKTEAEFLLVAIQMVSEAARFKYIENQVKTNFNRAFNPNPKVLNLQETWGKISTAIHDAKNGVLPKPLELVDASGAKWIVLRVDEIKPDVALLNYVGGSCQTTY
notes: mature
B1: binds.
